From patent publication US20190111114A1 (BRIGHAM AND WOMEN S HOSPITAL, published 2019) come the findings set out here.

In the assay the target is T1, BCL11A, endogenous, in mouse erythroid (MEL) cells (mouse, UniProt Q9QYE3 1-835, limits assumed).
T1 sequence (looked up): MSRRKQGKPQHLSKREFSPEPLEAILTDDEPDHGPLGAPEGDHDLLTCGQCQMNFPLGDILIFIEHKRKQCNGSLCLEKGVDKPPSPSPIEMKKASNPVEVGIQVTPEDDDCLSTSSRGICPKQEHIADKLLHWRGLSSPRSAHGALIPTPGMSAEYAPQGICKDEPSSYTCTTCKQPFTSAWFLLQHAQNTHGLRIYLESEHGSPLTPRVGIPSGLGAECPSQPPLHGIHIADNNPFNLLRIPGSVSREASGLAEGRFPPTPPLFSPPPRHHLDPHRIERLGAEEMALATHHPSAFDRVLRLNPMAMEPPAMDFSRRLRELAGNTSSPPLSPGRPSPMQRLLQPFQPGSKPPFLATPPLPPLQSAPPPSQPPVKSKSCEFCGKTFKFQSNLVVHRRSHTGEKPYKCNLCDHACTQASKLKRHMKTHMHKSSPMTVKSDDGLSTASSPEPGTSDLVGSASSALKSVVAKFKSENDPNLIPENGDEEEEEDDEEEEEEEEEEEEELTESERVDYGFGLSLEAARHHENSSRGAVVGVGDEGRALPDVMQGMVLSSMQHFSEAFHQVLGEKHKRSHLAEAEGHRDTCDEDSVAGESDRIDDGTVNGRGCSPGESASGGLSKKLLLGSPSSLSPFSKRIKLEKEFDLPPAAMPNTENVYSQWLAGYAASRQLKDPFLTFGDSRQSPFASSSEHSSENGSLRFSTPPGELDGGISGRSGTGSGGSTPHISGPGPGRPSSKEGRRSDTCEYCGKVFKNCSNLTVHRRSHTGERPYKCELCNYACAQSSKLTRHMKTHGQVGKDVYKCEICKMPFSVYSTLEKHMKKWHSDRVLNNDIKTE
The assay can be described thus: immunoprecipitation of tagged mouse LRF from MEL cells, Western blot. An excerpt: FKPM values were obtained from RNA-Seq experiments. (B) Validation of Y2H results by IP. […] Protein samples from empty vector-transfected cells served as negative controls. (C) LRF/GATAD2B interaction was validated in mouse erythroleukemia (MEL) cells. Applicants generated a series of expression vectors encoding N- or C-terminally-tagged mouse LRF (mLRF) and performed IP in MEL cells. Applicants could pull-down NuRD components and endogenous LRF protein only when Applicants expressed the LRF tagged at the far C-terminus. Anti-HA antibody could pull down both endogenous and exogenous LRF plus NuRD components (far right lane), while antibody against Flag, which was placed 15 aa upstream of the HA tag, pulled down only exogenous LRF (2nd lane from the left). Although Applicants tested 5 different (2 original and 3 commercially-available) anti-LRF antibodies for IP in mouse cells, none could pull down endogenous mouse LRF protein. Native LRF in the large NuRD complex may be inaccessible to anti-LRF antibodies in mouse cells (a model shown on right). Applicants note that the BCL11A image is from a different membrane. (D) Knockout of LRF or BCL11A was confirmed by Western blot using anti-LRF or -BCL11A antibodies. GAPDH: loading control. (E) Relative copy number of indicated β-globin transcripts was determined by q-PCR, as described in FIG. 8C. […]
In general terms: Immunoblotting shows a protein as a band on a membrane.

B1: mouse LRF tagged at the far C-terminus with Flag and HA (pMX-mCherry-FHC-mLRF), expressed in MEL cells (other, UniProt O88939 1-569, looked up)
chain: MAGGVDGPIGIPFPDHSSDILSGLNEQRTQGLLCDVVILVEGREFPTHRSVLAACSQYFKKLFTSGAVVDQQNVYEIDFVSAEALTALMDFAYTATLTVSTANVGDILSAARLLEIPAVSHVCADLLERQILAADDVGDASQPDGAGPTDQRNLLRAKEYLEFFRSNPMNSLPPTAFPWSGFGAPDDDLDATKEAVAAAVAAVAAGDCNGLDFYGPGPPADRPPAGDGDEGDSTPGLWPERDEDAPPGGLFPPPTAPPATTQNGHYGRAGAGTGEEEAAALSEAAPEPGDSPGFLSGAAEGEDGDAADVDGLAASTLLQQMMSSVGRAGDSDEESRTDDKGVMDYYLKYFSGAHEGDVYPAWSQKGEKKIRAKAFQKCPICEKVIQGAGKLPRHIRTHTGEKPYECNICKVRFTRQDKLKVHMRKHTGEKPYLCQQCGAAFAHNYDLKNHMRVHTGLRPYQCDSCCKTFVRSDHLHRHLKKDGCNGVPSRRGRKPRVRGVPPDVPAGAGAPPGLPDAPRNGQEKHFKDEEEDEEEASPDGSGRLNVAGSGGDDGAGGPAVATAEGNFAT
notes: also called exogenous LRF; not shown: Flag and HA tags at the 3' end of the cDNA, Flag placed 15 aa upstream of the HA tag
For B1, the binding result is reported as “no binding”.
